T1: XMcm3 (Xenopus (endogenous in Xenopus egg …, UniProt P49739 1-807))
T1 sequence (looked up): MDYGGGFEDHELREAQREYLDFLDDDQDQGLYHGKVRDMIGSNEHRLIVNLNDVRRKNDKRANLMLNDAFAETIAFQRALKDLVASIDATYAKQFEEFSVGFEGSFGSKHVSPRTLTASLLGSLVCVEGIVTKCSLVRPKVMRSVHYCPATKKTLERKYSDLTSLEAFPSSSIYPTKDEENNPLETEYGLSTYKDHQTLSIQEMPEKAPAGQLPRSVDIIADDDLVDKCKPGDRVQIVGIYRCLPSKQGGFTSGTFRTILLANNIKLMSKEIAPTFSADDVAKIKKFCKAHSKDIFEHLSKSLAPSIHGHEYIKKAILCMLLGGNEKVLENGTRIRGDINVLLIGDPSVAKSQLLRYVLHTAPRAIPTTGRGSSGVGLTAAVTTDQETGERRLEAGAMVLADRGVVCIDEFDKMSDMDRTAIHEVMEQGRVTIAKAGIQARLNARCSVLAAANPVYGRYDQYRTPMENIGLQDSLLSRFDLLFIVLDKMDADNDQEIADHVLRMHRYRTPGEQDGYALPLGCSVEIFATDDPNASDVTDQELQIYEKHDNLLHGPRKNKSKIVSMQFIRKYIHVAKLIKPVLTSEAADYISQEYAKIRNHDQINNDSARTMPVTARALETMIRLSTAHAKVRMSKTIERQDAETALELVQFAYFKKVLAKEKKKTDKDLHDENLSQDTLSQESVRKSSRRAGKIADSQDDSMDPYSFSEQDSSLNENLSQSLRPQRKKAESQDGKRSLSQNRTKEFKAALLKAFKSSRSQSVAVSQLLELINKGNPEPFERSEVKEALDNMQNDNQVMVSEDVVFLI

T2: XMcm2 (Xenopus (endogenous in Xenopus egg …, UniProt P55861 1-886))
T2 sequence (looked up): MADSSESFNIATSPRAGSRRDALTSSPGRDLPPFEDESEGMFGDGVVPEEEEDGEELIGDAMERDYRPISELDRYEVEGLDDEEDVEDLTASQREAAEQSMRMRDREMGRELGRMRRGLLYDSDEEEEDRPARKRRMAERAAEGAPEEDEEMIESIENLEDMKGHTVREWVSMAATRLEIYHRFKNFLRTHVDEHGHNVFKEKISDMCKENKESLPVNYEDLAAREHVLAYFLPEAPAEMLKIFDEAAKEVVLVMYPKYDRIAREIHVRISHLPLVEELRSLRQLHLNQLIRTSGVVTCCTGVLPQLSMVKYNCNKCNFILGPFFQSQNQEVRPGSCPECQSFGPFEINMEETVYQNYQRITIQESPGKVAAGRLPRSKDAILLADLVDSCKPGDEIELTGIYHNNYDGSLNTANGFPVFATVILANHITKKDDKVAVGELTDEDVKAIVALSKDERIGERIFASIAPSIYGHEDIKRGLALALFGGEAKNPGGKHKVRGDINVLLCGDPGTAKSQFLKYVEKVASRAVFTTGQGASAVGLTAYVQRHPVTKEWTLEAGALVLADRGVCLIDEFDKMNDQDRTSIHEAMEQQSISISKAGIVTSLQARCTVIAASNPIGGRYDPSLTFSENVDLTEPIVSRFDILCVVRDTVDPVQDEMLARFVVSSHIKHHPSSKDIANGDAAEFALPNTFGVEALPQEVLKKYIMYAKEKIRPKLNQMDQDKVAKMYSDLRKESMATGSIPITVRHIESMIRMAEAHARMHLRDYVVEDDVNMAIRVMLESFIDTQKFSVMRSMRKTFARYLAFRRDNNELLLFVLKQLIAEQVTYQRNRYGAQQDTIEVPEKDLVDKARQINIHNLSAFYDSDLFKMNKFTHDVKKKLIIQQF

B1: XMcm5 (natural protein, UniProt P55862 1-735, looked up)
chain: MSGFDDLGVYYSDSFGGEQQVGDDGQAKKSQLKKRFREFLRQYRIGTDRTGFTFKYRDELKRHYNLGEYWIEVEMEDLASFDEDLADYLYKQPTEHLQLLEEAAQEVADEVTRPRPAGEETIQEIQVMLRSDANPANIRSLKSEQMSHLVKIPGIIIAATAVRAKATKISIQCRSCRNTIGNIAVRPGLEGYAMPRKCNTEQAGRPNCPLDPYFIIPDKCKCVDFQTLKLQESPDAVPHGELPRHMQLYCDRYLCDKVVPGNRVTIMGIYSIRKSGKTSTKGRDRVGVGIRSSYIRVVGIQVDTEGTGRSAAGAITPQEEEEFRRLAAKPDIYETVAKSIAPSIYGSSDIKKAIACLLFGGSRKRLPDGLTRRGDVNLLMLGDPGTAKSQLLKFVERCSPIGVYTSGKGSSAAGLTASVMRDPVSRNFIMEGGAMVLADGGVVCIDEFDKMREDDRVAIHEAMEQQTISIAKAGITTTLNSRCSVLAAANSVYGRWDDTKGEENIDFMPTILSRFDMIFIVKDEHNEQRDMTLAKHVMNVHLSARTQSSSVEGEVDLNTLKKYIAYCRAKCGPRLSAEAAEKLKNRYILMRSGAREHERETEKRSSIPITVRQLEAIVRISESLGKMKLQPFATETDVEEALRLFQVSTLDAAMSGSLSGVEGFTTQEDQEMLSRIEKQMKKRFAIGSQVSEHSIIQDFLKQKYPEHAIHKVLSLMMRRGEIQHRLQRKVLYRIK
B2: XMcm7 (natural protein, UniProt Q91876 1-720, looked up)
chain: MPRDYQTEKEKCKTFLQEFYKDDEIGKKHFKYGVQLANIAHREQVALYIDLDDLAEEDPELVDAICENTRRYTNLFADAVQELLPQYKEREVVHKDALDVYIEHRLMMEQRGRDPNEMRDSQNQYPPELMRRFELYFKAPSSSKARVVRDVKADSIGKLVNIRGIVTRVTEVKPMMVVATYTCDQCGAETYQPIQSPTFMPLIMCPSRECQTNRSGGRLYLQTRGSKFIKFQELKIQEHSDQVPVGNIPRCMSVYVRGENTRLAQPGDHVGITGVFLPMLRTGFRQVVQGLLSETYLECHRLVKMNKSEDDELGTEELSEEELRQITEEDFYEKLAASIAPEIYGHEDVKKALLLLLVGGVDNSPRGMKIRGNINICLMGDPGVAKSQLLSYIDRLAPRSQYTTGRGSSGVGLTAAVMKDPVTGEMTLEGGALVLADQGVCCIDEFDKMMDTDRTAIHEVMEQQTISIAKAGIMTTLNARCSILAAANPAYGRYNPKKTVEQNIQLPAALLSRFDVLWLIQDKPDRDNDLRLAQHITYVHQHSKQPPSQFQPLDMKLMRRYITMCKRKQPAIPEALADYLTAAYVEMRKEARTNKDMTFTSARTLLSVLRLSTALARLRLEDVVEKEDVNEAMRLMEMSKDSLLGDKGHTSRTQRPADVIFSTIREMVPEKGARSVKYSEAEQRCVSKGFTPAQFEAALEEYEELNVWLVNQARTKITFV
B3: XMcm4 (natural protein, UniProt P30664 1-863, looked up)
chain: MSSPTSTPSRRRNKRGRGSNPPTPHGEEVQSPPSQRRRTEDSTSIGELLPMPTSPSGDVQSPSGQELLFSSPAPSRHSAHQSELDLSSPLTYGTPSSRVEGTPRSGIRGTPARQRPDLGSARKVKQVDLHSDQPAAEELVTSEQSLGQKLVIWGTDVNVATCKEKFQRFVQRFIDPSAKEEDNVGLDLNEPIYMQRLEEINVVGDPFLNIDCDHLRNFDQDLYRQLVCYPQEVIPTFDMAANEIFFERYPDSILEHQIQVRPYNALKTRNMRSLNPEDIDQLITISGMVIRTSQIIPEMQEAFFKCQVCAFTTRVEIDRGRIAEPSVCKHCNTTHSMALIHNRSMFSDKQMIKLQESPEDMPAGQTPHTTILYGHNDLVDKVQPGDRVNVTGIYRAVPIRVNPRVRNVKSVYKTHIDVIHYRKTDSKRLHGIDEDTEQKLFTEERVAMLKELAAKPDIYERLAAALAPSIYEHEDIKKGILLQLFGGTRKDFSHTGRGKFRAEVNILLCGDPGTSKSQLLQYVFNLVPRGQYTSGKGSSAVGLTAYVMKDPETRQLVLQTGALVLSDNGICCIDEFDKMNESTRSVLHEVMEQQTLSIAKAGIICQLNARTSVLAAANPVESQWNPKKTTIENIQLPHTLLSRFDLIFLMLDPQDEAYDRRLAHHLVALYYQSEEQMKEEHLDMAVLKDYIAYARTYVNPRLSEEASQALIEAYVSMRKIGSGRGMVSAYPRQLESLIRLSEAHAKVRFSNKVETIDVEEAKRLHREALKQSATDPRTGIVDISILTTGMSATARKRKEELAQVLKKLIQSKGKTPALKYQQLFEDLRGQSDAAITKDMFDEALHALADDDYLTVTGKTVRLL
B4: XMcm6 (natural protein, UniProt Q5FWY4 1-821, looked up)
chain: MELGGPAAAGDTDIAGQQLFKDELSDKCQKLFLEFLEECKGKDGSNLYVSAAEELIRPERNTLAVNFTDIEYYNQQLATTIQEEYYRVYPHLCRAVRSFARQMGNIPANKEFYIAFSDFPARQKIRELSSAKIGTLLRISGQVVRTHPVHPELVSGTFLCMDCQSIVKDVEQQFRYTQPTICKNPVCANRRRFTLDTNKSRFVDFQKVRIQETQAELPRGAIPRSVEIILRAEAVESAMAGDRCDFTGTLIVVPDVSALAAGDARMETGAKVTGGEGFNSEGVQGLKALGVRDLSYRLAFLACYVGATNPRFGGKDLREEDQTAESIKNQMTVQEWEKVFEMSQDKNLYHNLCTSLFPTIHGNDEIKRGVLLMLFGGVPKTTMEGTSLRGDINVCIVGDPSTSKSQFLKHVEEFSPRAVYTSGKASSAAGLTAAVVKDEESHEFVIEAGALMLADNGVCCIDEFDKMDLKDQVAIHEAMEQQTISITKAGVKATLNARTSILAAANPVGGRYERSKSLKHNVNLSAPIMSRFDLFFILVDECNEVTDYAIARRIVDLHARNEESIERVYSIEDIQRYLLFARQFQPKITKEAEEFIVEQYRRLRQRDGSGVAKSSWRITVRQLESLIRLSESMARMHCSDEVQPKHVKEAFRLLSKSIIRVDTPDVSFDQGEDEKNIEGENNGNLNNGEEAMETNQDEPINEKPSSNAGLKMSFAEYKQISNLLVLYMQKMEETEEECHLTTTDLVNWYLKEMEAEIETETELILKKRLIEKVIHRLIYYDHILIELNKSELKTMDDTKETGEDAAEDRILVVNPNYMLED

Experiments:
Assay in all cases: co-purification by chromatography with densitometry
XMcm3 = biological target: T1, XMcm3
XMcm2 = biological target: T2, XMcm2
XMcm4 = biological target: B3

Binder	stoichiometry N (XMcm3)	binding result (XMcm3)	stoichiometry N (XMcm2)	stoichiometry N (XMcm4)
B1	1.2 XMcm5 per 1.0 XMcm3	–	–	–
B2	–	binds	1.1 XMcm7 per 1.0 XMcm2	1.1 XMcm7 per 1.0 XMcm4
B3	–	–	1.1 XMcm4 per 1.0 XMcm2	–
B4	–	–	1.1 XMcm6 per 1.0 XMcm2	1 XMcm6 per 1.0 XMcm4

Reference: paper PMC3626232 (The Journal of biological chemistry, 2000)
